The target in this assay is Xanthamonas campestris p.v. campestris Class 2 OLD protein, full-length (Xcc^FL, residues 1-595) (Xanthamonas campestris p.v. campestris). Put plainly: SEC-MALS. In general terms: In gel filtration, larger molecules generally elute earlier.

What is called stoichiometry N is the number of molecules, sites or subunits per partner or assembly.

“Xanthamonas campestris p.v. campestris Class 2 OLD protein, full-length (Xcc^FL, residues 1-595) (enzyme)” registered a stoichiometry N of 4.

For the origin of these results see PMC6755086.
